No end group written: not given here.
Columns and labels:
H2K-2B4 cells = test: CCK-8 cell viability, WT H2K-2B4 cells; type: cell-based, murine; details: at 1 mM, proliferation and differentiation conditions, CCK-8, triplicate
Description: (§1) Wild-type (WT) H2K-2B4 and dystrophic H2K-SF1 cell lines were cultured and used for all the experiments ([48]). Cells were seeded in 96-well cultures (approximately 4–4.5 × 10^3 cells per well) and sixteen hours after seeding were treated with EP80317, JMV2894 (both in the concentration range 100μM to 1mM) or ghrelin (as control in the concentration range 10nM to 100 μM). Cell viability was then evaluated at different time points following the exposure (16-96 h) by using the Cell Counting Kit-8 (CCK-8,96992 Sigma-Aldrich), according to the instruction. The optical density of each well was determined using a microplate reader set to 450 nm (Victor 3V, Perkin Elmer, Waltham, MA, USA). Cell viability was expressed in percentage vs. control properly corrected for blank values.

H2K-SF1 cells = test: CCK-8 cell viability, dystrophic H2K-SF1 cells; type: cell-based, murine; details: at 1 mM, proliferation and differentiation conditions, CCK-8, triplicate
Description: as §1

ghrelin: 28 amino acid hormone, used as control in the cell viability assay (GSSFLSPEHQRVQQRKESKKPPAKLQPR; ends and bridges not checked; UniProt Q9UBU3 24-51, looked up)
toxic effect on 2B4 cells (H2K-2B4 cells): no toxic effect | toxic effect on SF1 cells (H2K-SF1 cells): no toxic effect

Source: paper PMC10130389, “Growth hormone secretagogues modulate inflammation and fibrosis in mdx mouse model of Duchenne muscular dystrophy” (Frontiers in Immunology, 2023)
